B1: ATL3 (parent)
chain: YGLQGGMAFLDKRLQVKEHQHEEI
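Note: lentivirally expressed fusions sorted by FACS into six bins by GFP to DsRed ratio, PSI derived from sequencing read proportions per bin multiplied by bin number.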

Variants of: B1
Experiment: protein stability index of a GFP-peptide fusion (GPS, HEK-293T) (PSI 1-6); higher = more stable
Conditions: c terminus: a fixed tail appended
YGLQGGMAFLDWRLQVKEHQHEEI [K12W] gave a protein stability index of 2.44.
With YGLQGGMAFLDTRLQVKEHQHEEI [K12T] the protein stability index was 1.79.
For YGLQGGMAFLDSRLQVKEHQHEEI [K12S], the protein stability index was 2.26.
With YGLQGGMAFLDGRLQVKEHQHEEI [K12G] the protein stability index was 2.22.
YGLQGGMAFLDNRLQVKEHQHEEI [K12N] gave a protein stability index of 2.91.
YGLQGGMAFLDDRLQVKEHQHEEI [K12D] gave a protein stability index of 1.75.
YGLQGGMAFLDLRLQVKEHQHEEI [K12L] gave a protein stability index of 3.83.
In the case of YGLQGGMAFLDYRLQVKEHQHEEI [K12Y], the protein stability index is reported as 2.73.
For YGLQGGMAFLDFRLQVKEHQHEEI [K12F], the protein stability index was 3.37.
In the case of YGLQGGMAFLDARLQVKEHQHEEI [K12A], the protein stability index is reported as 1.93.
With YGLQGGMAFLDMRLQVKEHQHEEI [K12M] the protein stability index was 2.89.
In the case of YGLQGGMAFLDIRLQVKEHQHEEI [K12I], the protein stability index is reported as 3.88.
Variant YGLQGGMAFLDCRLQVKEHQHEEI [K12C] has a protein stability index of 1.49.
In the case of YGLQGGMAFLDVRLQVKEHQHEEI [K12V], the protein stability index is reported as 2.62.
YGLQGGMAFLDHRLQVKEHQHEEI [K12H] gave a protein stability index of 2.03.
Work on YSLQGGMAFLDKRLQVKEHQHEEI [G2S] yielded a protein stability index of 2.96.
YWLQGGMAFLDKRLQVKEHQHEEI [G2W] gave a protein stability index of 2.37.
For YTLQGGMAFLDKRLQVKEHQHEEI [G2T], the protein stability index was 2.05.
In the case of YRLQGGMAFLDKRLQVKEHQHEEI [G2R], the protein stability index is reported as 3.49.
For YYLQGGMAFLDKRLQVKEHQHEEI [G2Y], the protein stability index was 2.71.
Variant YGLQGGMAKLDKRLQVKEHQHEEI [F9K] has a protein stability index of 4.4.
With YGLQGGMAGLDKRLQVKEHQHEEI [F9G] the protein stability index was 4.45.
YGLQGGMAWLDKRLQVKEHQHEEI [F9W] gave a protein stability index of 2.26.
For YGLQGGMARLDKRLQVKEHQHEEI [F9R], the protein stability index was 3.79.
For YGLQGGMAELDKRLQVKEHQHEEI [F9E], the protein stability index was 5.
Work on YGLQGGMAALDKRLQVKEHQHEEI [F9A] yielded a protein stability index of 4.3.
With YGLQGGMADLDKRLQVKEHQHEEI [F9D] the protein stability index was 4.88.
In the case of YGLQGGMAQLDKRLQVKEHQHEEI [F9Q], the protein stability index is reported as 4.42.
In the case of YGLQGGMAILDKRLQVKEHQHEEI [F9I], the protein stability index is reported as 3.82.
In the case of YGLQGGMASLDKRLQVKEHQHEEI [F9S], the protein stability index is reported as 4.49.
YGLQGGMAYLDKRLQVKEHQHEEI [F9Y] showed a protein stability index of 1.91.
Work on YGLQGGMAMLDKRLQVKEHQHEEI [F9M] yielded a protein stability index of 4.25.
With YGLQGGMALLDKRLQVKEHQHEEI [F9L] the protein stability index was 3.84.
In the case of YGLQGGMAPLDKRLQVKEHQHEEI [F9P], the protein stability index is reported as 4.69.
In the case of YGLQGGMANLDKRLQVKEHQHEEI [F9N], the protein stability index is reported as 4.51.
YGLQGGMATLDKRLQVKEHQHEEI [F9T] gave a protein stability index of 4.58.
YGLQGGMAHLDKRLQVKEHQHEEI [F9H] gave a protein stability index of 4.06.
YGLQGGMAVLDKRLQVKEHQHEEI [F9V] showed a protein stability index of 4.23.
Variant YGLQGGMACLDKRLQVKEHQHEEI [F9C] has a protein stability index of 4.13.
With YGLQRGMAFLDKRLQVKEHQHEEI [G5R] the protein stability index was 2.39.
Variant YGLQQGMAFLDKRLQVKEHQHEEI [G5Q] has a protein stability index of 2.73.
YGLQFGMAFLDKRLQVKEHQHEEI [G5F] gave a protein stability index of 1.82.
For YGLQKGMAFLDKRLQVKEHQHEEI [G5K], the protein stability index was 2.4.
With YGLQNGMAFLDKRLQVKEHQHEEI [G5N] the protein stability index was 2.44.
YGLQAGMAFLDKRLQVKEHQHEEI [G5A] gave a protein stability index of 1.74.
Variant YGLQPGMAFLDKRLQVKEHQHEEI [G5P] has a protein stability index of 2.65.
Variant YGLQHGMAFLDKRLQVKEHQHEEI [G5H] has a protein stability index of 2.5.
For YGLQVGMAFLDKRLQVKEHQHEEI [G5V], the protein stability index was 2.28.
YGLQYGMAFLDKRLQVKEHQHEEI [G5Y] gave a protein stability index of 2.66.
In the case of YGLQSGMAFLDKRLQVKEHQHEEI [G5S], the protein stability index is reported as 2.25.
Work on YGLQMGMAFLDKRLQVKEHQHEEI [G5M] yielded a protein stability index of 2.1.
Work on YGLQCGMAFLDKRLQVKEHQHEEI [G5C] yielded a protein stability index of 1.92.
Work on YGLQDGMAFLDKRLQVKEHQHEEI [G5D] yielded a protein stability index of 2.34.
Variant YGLQTGMAFLDKRLQVKEHQHEEI [G5T] has a protein stability index of 3.18.
YGLQEGMAFLDKRLQVKEHQHEEI [G5E] showed a protein stability index of 3.15.
With YGLQIGMAFLDKRLQVKEHQHEEI [G5I] the protein stability index was 2.04.
For YGLQLGMAFLDKRLQVKEHQHEEI [G5L], the protein stability index was 2.39.
With YGLCGGMAFLDKRLQVKEHQHEEI [Q4C] the protein stability index was 3.19.
YGLIGGMAFLDKRLQVKEHQHEEI [Q4I] showed a protein stability index of 2.86.
Work on YGLLGGMAFLDKRLQVKEHQHEEI [Q4L] yielded a protein stability index of 1.75.
With YGLKGGMAFLDKRLQVKEHQHEEI [Q4K] the protein stability index was 3.89.
YGLGGGMAFLDKRLQVKEHQHEEI [Q4G] gave a protein stability index of 1.98.
With YGLFGGMAFLDKRLQVKEHQHEEI [Q4F] the protein stability index was 2.32.
YGLEGGMAFLDKRLQVKEHQHEEI [Q4E] gave a protein stability index of 1.92.
In the case of YGLRGGMAFLDKRLQVKEHQHEEI [Q4R], the protein stability index is reported as 2.67.
In the case of YGLSGGMAFLDKRLQVKEHQHEEI [Q4S], the protein stability index is reported as 2.16.
Variant YGLAGGMAFLDKRLQVKEHQHEEI [Q4A] has a protein stability index of 3.19.
With YGLTGGMAFLDKRLQVKEHQHEEI [Q4T] the protein stability index was 1.89.
With YGLWGGMAFLDKRLQVKEHQHEEI [Q4W] the protein stability index was 2.66.
For YGLHGGMAFLDKRLQVKEHQHEEI [Q4H], the protein stability index was 3.46.
Variant YGLPGGMAFLDKRLQVKEHQHEEI [Q4P] has a protein stability index of 2.37.
With YGLDGGMAFLDKRLQVKEHQHEEI [Q4D] the protein stability index was 2.18.
With YGLVGGMAFLDKRLQVKEHQHEEI [Q4V] the protein stability index was 2.25.
Variant YGLNGGMAFLDKRLQVKEHQHEEI [Q4N] has a protein stability index of 3.07.
YGLMGGMAFLDKRLQVKEHQHEEI [Q4M] showed a protein stability index of 2.83.
With YGLQGGSAFLDKRLQVKEHQHEEI [M7S] the protein stability index was 2.05.
YGLQGGEAFLDKRLQVKEHQHEEI [M7E] showed a protein stability index of 3.23.
With YGLQGGIAFLDKRLQVKEHQHEEI [M7I] the protein stability index was 2.28.
Work on YGLQGGVAFLDKRLQVKEHQHEEI [M7V] yielded a protein stability index of 2.52.
Work on YGLQGGCAFLDKRLQVKEHQHEEI [M7C] yielded a protein stability index of 2.48.
Variant YGLQGGPAFLDKRLQVKEHQHEEI [M7P] has a protein stability index of 2.18.
YGLQGGRAFLDKRLQVKEHQHEEI [M7R] showed a protein stability index of 2.24.
For YGLQGGNAFLDKRLQVKEHQHEEI [M7N], the protein stability index was 2.23.
YGLQGGWAFLDKRLQVKEHQHEEI [M7W] showed a protein stability index of 1.47.
With YGLQGGKAFLDKRLQVKEHQHEEI [M7K] the protein stability index was 3.76.
In the case of YGLQGGYAFLDKRLQVKEHQHEEI [M7Y], the protein stability index is reported as 1.93.
For YGLQGGAAFLDKRLQVKEHQHEEI [M7A], the protein stability index was 1.38.
For YGLQGGFAFLDKRLQVKEHQHEEI [M7F], the protein stability index was 3.3.
YGLQGGTAFLDKRLQVKEHQHEEI [M7T] gave a protein stability index of 1.7.
With YGLQGGDAFLDKRLQVKEHQHEEI [M7D] the protein stability index was 2.16.
For YGLQGGGAFLDKRLQVKEHQHEEI [M7G], the protein stability index was 2.02.
YGLQGGQAFLDKRLQVKEHQHEEI [M7Q] showed a protein stability index of 1.03.
YGLQGGLAFLDKRLQVKEHQHEEI [M7L] gave a protein stability index of 2.66.
Variant YGLQGGHAFLDKRLQVKEHQHEEI [M7H] has a protein stability index of 1.75.
